Values quoted from earlier work in paper PMC9405667.

How the values were obtained:
[1] = target: chemerin receptor 1 (chem1) (Homo sapiens) (UniProt Q99788)
[2] = target: chemerin receptor 2 (chem2) (Homo sapiens) (UniProt P46091)
chemerin receptor 2 (chem2) (Homo sapiens), sequence (P46091 whole entry): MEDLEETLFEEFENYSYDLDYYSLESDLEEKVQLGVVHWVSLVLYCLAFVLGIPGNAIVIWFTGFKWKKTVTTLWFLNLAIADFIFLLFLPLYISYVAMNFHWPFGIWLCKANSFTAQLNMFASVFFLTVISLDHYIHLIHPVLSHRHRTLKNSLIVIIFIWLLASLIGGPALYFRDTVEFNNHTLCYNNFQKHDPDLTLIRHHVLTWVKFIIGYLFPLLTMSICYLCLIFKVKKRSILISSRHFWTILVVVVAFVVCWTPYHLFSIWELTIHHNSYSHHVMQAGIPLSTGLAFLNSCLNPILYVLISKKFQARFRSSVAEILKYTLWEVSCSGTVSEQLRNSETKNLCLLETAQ

chemerin (chem157S), sequence (Q99969 21-157): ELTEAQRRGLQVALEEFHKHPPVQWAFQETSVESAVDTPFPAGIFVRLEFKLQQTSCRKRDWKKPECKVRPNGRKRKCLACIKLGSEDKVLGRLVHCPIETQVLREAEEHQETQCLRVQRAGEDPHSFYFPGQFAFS
chemerin receptor 1 (chem1) (Homo sapiens), sequence (Q99788 whole entry): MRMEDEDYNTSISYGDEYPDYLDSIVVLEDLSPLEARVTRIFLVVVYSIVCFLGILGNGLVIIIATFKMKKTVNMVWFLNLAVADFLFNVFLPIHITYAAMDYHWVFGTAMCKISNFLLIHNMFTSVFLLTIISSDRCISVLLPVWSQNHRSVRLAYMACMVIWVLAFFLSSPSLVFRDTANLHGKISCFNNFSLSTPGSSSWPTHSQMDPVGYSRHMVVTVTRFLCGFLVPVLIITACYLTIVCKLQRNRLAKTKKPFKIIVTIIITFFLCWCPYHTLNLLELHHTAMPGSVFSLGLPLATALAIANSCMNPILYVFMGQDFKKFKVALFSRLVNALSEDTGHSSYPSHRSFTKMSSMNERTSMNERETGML

chemerin (chem157S) (from UniProt Q99969)
Kd [1]: 0.88 nM
Kd [2]: 0.21 nM
